Consider 2 molecules from publication PMC10243135.

For data set [1], the target named is T1, WhiA;WhiB;sigmaA (sigma HrdB);RbpA;RNA polymerase core (alpha2 beta beta' omega) (Streptomyces venezuelae;Streptomyces …, UniProt F2RGQ4;F2R611;F2R7X6;F2RBH1;F2RJV9;F2RIS5;F2RIS6;F2RCK7 …, ||||). Nature of the data set: cryo-EM.
Data set [2] deals with T1, WhiA;WhiB;sigmaA (sigma HrdB);RbpA;RNA …. Nature of the data set: cryo-EM. This is another data set of the same source.

Like-named read-outs stand apart in the source and are kept apart here.

B1: sepX-2 promoter (cryo-EM, RPo-2) (dsDNA)
DNA 1: GTGATATCAGCCAGATCGTGCGACACACCGGGCCAATTGGCTTGACACC
DNA 2: GGTGTCAAGCCAATTGGCCCGGTGTGTCGCACGATCTGGCTGATATCAC
Regarding B1, the binding result in data set [1] is “binds”.

B2: sepX promoter (cryo-EM, RPo) (dsDNA)
DNA 1: GTGATATCAGCCAGATCGTGCGACACACCGGGCCAATTGGCCGATGCCGTCCCGCGAACCCCTCTACCGTGTGAGGCGTGAGCAGCAGCGGCCTCATCGC
DNA 2: GCGATGAGGCCGCTGCTGCTCACGCCTCACACGGTAGAGGGGTTCGCGGGACGGCATCGGCCAATTGGCCCGGTGTGTCGCACGATCTGGCTGATATCAC
With B2, the binding result in data set [2] is “binds”.
